Assay results: article PMC8809517, “Cofactor-independent RNA editing by a synthetic S-type PPR protein”

T1: GFP-9S library array, motif 4 ND N98S (synthetic construct, N98S)
T1 chain: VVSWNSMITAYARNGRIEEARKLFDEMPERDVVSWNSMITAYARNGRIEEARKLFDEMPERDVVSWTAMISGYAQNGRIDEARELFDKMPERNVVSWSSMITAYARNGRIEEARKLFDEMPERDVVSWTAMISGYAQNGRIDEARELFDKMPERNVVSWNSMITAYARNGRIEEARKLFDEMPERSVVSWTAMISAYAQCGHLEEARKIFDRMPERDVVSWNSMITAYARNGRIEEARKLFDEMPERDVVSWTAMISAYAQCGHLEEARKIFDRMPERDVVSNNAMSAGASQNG

T2: GFP-9S library array, motif 4 ND N98G;D124G (synthetic construct, N98G;D124G)
T2 chain: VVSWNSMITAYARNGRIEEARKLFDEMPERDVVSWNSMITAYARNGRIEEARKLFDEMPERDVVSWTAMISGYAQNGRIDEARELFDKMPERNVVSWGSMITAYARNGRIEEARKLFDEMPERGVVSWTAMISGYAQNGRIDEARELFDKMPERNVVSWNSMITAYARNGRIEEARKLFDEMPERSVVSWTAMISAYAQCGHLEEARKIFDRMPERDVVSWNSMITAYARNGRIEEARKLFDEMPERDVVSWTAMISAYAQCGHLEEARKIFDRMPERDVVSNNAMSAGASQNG

T3: GFP-9S library array, motif 4 ND N98V;D124I (synthetic construct, N98V;D124I)
T3 chain: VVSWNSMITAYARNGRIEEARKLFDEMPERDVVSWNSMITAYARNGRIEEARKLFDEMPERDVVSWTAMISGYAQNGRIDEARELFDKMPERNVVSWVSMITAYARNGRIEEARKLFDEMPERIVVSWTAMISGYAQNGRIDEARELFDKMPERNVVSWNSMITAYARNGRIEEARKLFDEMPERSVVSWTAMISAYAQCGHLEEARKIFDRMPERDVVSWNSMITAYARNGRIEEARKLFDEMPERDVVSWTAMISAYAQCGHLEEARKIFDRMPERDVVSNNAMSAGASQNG

T4: GFP-9S library array, motif 4 ND N98G;D124H (synthetic construct, N98G;D124H)
T4 chain: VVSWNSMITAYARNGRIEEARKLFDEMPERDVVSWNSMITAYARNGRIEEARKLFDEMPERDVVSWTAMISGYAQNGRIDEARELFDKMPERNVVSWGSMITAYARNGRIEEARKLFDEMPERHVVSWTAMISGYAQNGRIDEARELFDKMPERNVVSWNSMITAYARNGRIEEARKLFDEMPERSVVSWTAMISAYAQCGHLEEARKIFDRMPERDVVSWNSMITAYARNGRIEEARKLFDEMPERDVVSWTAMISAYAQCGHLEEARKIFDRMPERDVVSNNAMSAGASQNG

T5: GFP-9S library array, motif 4 ND N98S;D124V (synthetic construct, N98S;D124V)
T5 chain: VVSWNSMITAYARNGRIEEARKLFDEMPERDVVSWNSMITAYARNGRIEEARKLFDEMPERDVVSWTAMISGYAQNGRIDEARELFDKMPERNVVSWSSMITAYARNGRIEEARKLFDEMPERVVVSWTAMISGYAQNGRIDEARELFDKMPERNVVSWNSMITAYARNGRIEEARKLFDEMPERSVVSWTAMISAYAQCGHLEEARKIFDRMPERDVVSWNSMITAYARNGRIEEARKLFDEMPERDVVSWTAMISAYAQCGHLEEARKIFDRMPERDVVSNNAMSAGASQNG


How the values were obtained:
Experiment in all cases: high-throughput RNA pulldown from lysate on Ni-NTA beads; HRP: 50 mM Tris pH 8, 150 mM NaCl, 1 mM beta-mercaptoethanol, 50 ug/ml BSA, 3 ug/ml yeast RNA, 0.5% heparin; ITC and FP: Tris pH 8, 200 mM KCl, 5% glycerol; MST: 50 mM Tris pH 8, 200 mM NaCl, 1 mM DTT, BSA, heparin, 0.05% Tween 20
Conditions in all cases: tags: N-terminal His-eGFP
[1] = biological target: T1, GFP-9S library array, motif 4 ND N98S
[2] = biological target: T2, GFP-9S library array, motif 4 ND …
[3] = biological target: T3, GFP-9S library array, motif 4 ND …
[4] = biological target: T4, GFP-9S library array, motif 4 ND …
[5] = biological target: T5, GFP-9S library array, motif 4 ND …

Row | Binder | Kd ([1]; label: 5' IRDye 800CW) [nM] | Kd ([2]; label: 5' IRDye 800CW) [nM] | Kd ([3]; label: 5' IRDye 800CW) [nM] | Kd ([4]; label: 5' IRDye 800CW) [nM] | Kd ([5]; label: 5' IRDye 800CW) [nM] | Kd ([1]; label: 5' Cy5) [nM] | Kd ([2]; label: 5' Cy5) [nM] | Kd ([3]; label: 5' Cy5) [nM] | Kd ([4]; label: 5' Cy5) [nM] | Kd ([5]; label: 5' Cy5) [nM]
1 | AUUAUACGUGA (ssRNA) [IR-rpoA-U] | 262 | 95.3 | 205 | 136 | 152 | – | – | – | – | –
2 | AUUACACGUGA (ssRNA) [Cy5-rpoA] | – | – | – | – | – | 413 | 92 | 121 | 91.1 | 114
3 | AUUAGACGUGA (ssRNA) [Cy5-rpoA-G] | – | – | – | – | – | 17.2 | 95.2 | 163 | 108 | 74.5
4 | AUUAAACGUGA (ssRNA) [IR-rpoA-A] | 574 | 49.9 | 384 | 114 | 51.2 | – | – | – | – | –
